A word on the stoichiometry N: it is a count of units in the complex or per binding partner.

This test deals with F241A IgG1 Fc fragment (human). Kind of test: crystal structure.

As to “F241A IgG1 Fc fragment (domain or fragment)”, the stoichiometry N came to 2.

The record behind these values is PMC4159253.
